In the test the target is Flag::Hth (Homothorax, Flag-tagged) (Drosophila) (UniProt O46339). Briefly: co-IP; SF9 extracts with Flag::Hth, His::Exd and HA::Abd-B (wild type or W>A) mixed and incubated on anti-Flag resin; lysis solution 140 mM KCl, 5% glycerol, 2.5% MgCl2, 25 mM Hepes pH 7.8, 10 mM imidazole; Western blot by the tags. A general note: A western blot detects proteins with antibodies after separation by electrophoresis.
Sequence of UniProt O46339 (O46339 whole entry): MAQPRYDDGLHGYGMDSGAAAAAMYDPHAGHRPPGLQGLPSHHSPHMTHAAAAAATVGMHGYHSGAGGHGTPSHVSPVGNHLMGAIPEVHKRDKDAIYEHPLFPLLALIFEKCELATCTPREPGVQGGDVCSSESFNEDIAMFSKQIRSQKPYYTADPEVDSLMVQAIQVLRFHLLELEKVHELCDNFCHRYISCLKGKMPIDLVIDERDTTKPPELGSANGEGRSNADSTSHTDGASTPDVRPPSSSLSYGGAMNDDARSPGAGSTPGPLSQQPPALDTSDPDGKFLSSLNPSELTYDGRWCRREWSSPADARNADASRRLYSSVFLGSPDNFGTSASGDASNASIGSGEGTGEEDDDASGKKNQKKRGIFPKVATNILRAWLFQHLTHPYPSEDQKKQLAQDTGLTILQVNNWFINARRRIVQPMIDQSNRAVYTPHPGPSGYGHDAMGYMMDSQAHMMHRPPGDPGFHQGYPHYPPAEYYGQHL

“HA::Abd-B^W (Abdominal-B with the Tryptophan of the HX-like motif mutated to Alanine, HA-tagged) (from UniProt P09087 1-493)” registered a percent reduction of co-precipitated protein against wild-type Abd-B of 24%.

These data come from article PMC11759358.
